Source: patent publication US20100048677A1 (NEW YORK BLOOD CENTER, published 2010)

Molecular target: T1, mature αIIbβ3 complex (human, UniProt P08514 32-887; P08514 891-1039; P05106 27-788)
T1 construct: Endogenous, from megakaryocyte lysates
Assay: co-immunoprecipitation with conformation-specific mAb M148, immunoblot for DNAJC10

binding result: no binding
B1: DNAJC10 (DNAJ (HSP40) HOMOLOG, SUBFAMILY C, MEMBER 10) (other)
chain: DQDFYSLLGVSKTASSREIRQAFKKLALKLHPDKNPNNPNAHGDFLKINRAYEVLKDEDLRKKYDKYGEKGLEDNQGGQYESWNYYRYDFGIYDDDPEIITLERREFDAAVNSGELWFVNFYSPGCSHCHDLAPTWRDFAKEVDGLLRIGAVNCGDDRMLCRMKGVNSYPSLFIFRSGMAPVKYHGDRSKESLVSFAMQHVRSTVTELWTGNFVNSIQTAFAAGIGWLITFCSKGGDCLTSQTRLRLSGMLDGLVNVGWMDCATQDNLCKSLDITTSTTAYFPPGATLNNKEKNSILFLNSLDAKEIYLEVIHNLPDFELLSANTLEDRLAHHRWLLFFHFGKNENSNDPELKKLKTLLKNDHIQVGRFDCSSAPDICSNLYVFQPSLAVFKGQGTKEYEIHHGKKILYDILAFAKESVNSHVTTLGPQNFPANDKEPWLVDFFAPWCPPCRALLPELRRASNLLYGQLKFGTLDCTVHEGLCNMYNIQAYPTTVVFNQSNIHEYEGHHSAEQILEFIEDLMNPSVVSLTPTTFNELVTQRKHNEVWMVDFYSPWCHPCQVLMPEWKRMARTLTGLINVGSIDCQQYHSFCAQENVQRYPEIRFFPPKSNKAYHYHSYNGWNRDAYSLRIWGLGFLPQVSTDLTPQTFSEKVLQGKNHWVIDFYAPWCGPCQNFAPEFELLARMIKGKVKAGKVDCQAYAQTCQKAGIRAYPTVKFYFYERAKRNFQEEQINTRDAKAIAALISEKLETLRNQGKRNKDEL
notes: Endogenous protein in lysates of human UCB-derived megakaryocytes or HEK293 cells
